The target in experiment [1] is HLA-B*15:01. Description: IEDB peptide-MHC binding, purified MHC/competitive/radioactivity; filed as Kd, often an IC50 or EC50 that approximates it; ≥ and ≤ were set here for values at or beyond the usual limits of such assays.
Experiment [2] addresses HLA-B*15:03. The experiment is described as above.
In experiment [3] the target is HLA-A*32:01. The description is as above.
Experiment [4] addresses HLA-B*08:01. The experiment is described as above.
The target in experiment [5] is HLA-A*30:01. The experiment is described as above.
For experiment [6], the target named is HLA-B*15:42. The experiment in a line: IEDB peptide-MHC binding, purified MHC/competitive/fluorescence; filed as Kd, often an IC50 or EC50 that approximates it; ≥ and ≤ were set here for values at or beyond the usual limits of such assays.
Experiment [7] addresses HLA-B*45:06. The description is as above.
Experiment [8] addresses HLA-B*83:01. Described as above.
For experiment [9], the target named is HLA-A*11:01. The experiment in a line: IEDB peptide-MHC binding, purified MHC/direct/fluorescence; filed as Kd, often an IC50 or EC50 that approximates it; ≥ and ≤ were set here for values at or beyond the usual limits of such assays.
For experiment [10], the target named is HLA-A*03:01. The description is as above.
Experiment [11] has as its target HLA-B*51:01. Described as above.
Experiment [12] has as its target HLA-B*07:02. The experiment is described as above.
In experiment [13] the target is HLA-B*15:01. The experiment in a line: IEDB peptide-MHC binding, purified MHC/competitive/fluorescence; filed as Kd, often an IC50 or EC50 that approximates it; ≥ and ≤ were set here for values at or beyond the usual limits of such assays.
Experiment [14] has as its target HLA-B*08:01. Description: IEDB peptide-MHC binding, purified MHC/direct/fluorescence; filed as Kd, often an IC50 or EC50 that approximates it; ≥ and ≤ were set here for values at or beyond the usual limits of such assays.
The target in experiment [15] is HLA-B*08:02. Described as above. To be noted: source organism: Vibrio vulnificus CMCP6.
The target of experiment [16] is HLA-B*18:01. Description: IEDB peptide-MHC binding, purified MHC/competitive/fluorescence; filed as Kd, often an IC50 or EC50 that approximates it; ≥ and ≤ were set here for values at or beyond the usual limits of such assays.
The target in experiment [17] is HLA-B*27:03. The description is as above.
Experiment [18] has as its target HLA-A*26:01. The experiment is described as above.
In experiment [19] the target is HLA-B*51:01. The experiment is described as above. To be noted: source organism: Homo sapiens.
For experiment [20], the target named is HLA-B*15:17. Described as above. To be noted: source organism: Homo sapiens.
Experiment [21] addresses HLA-B*57:01. The description is as above. To be noted: source organism: Homo sapiens.
In experiment [22] the target is HLA-A*69:01. The description is as above. To be noted: source organism: Homo sapiens.
In experiment [23] the target is HLA-B*39:01. The experiment is described as above.
Experiment [24] deals with HLA-B*46:01. The experiment is described as above. To be noted: source organism: Homo sapiens.
Experiment [25] concerns the target HLA-A*24:02. Description: IEDB peptide-MHC binding, purified MHC/competitive/fluorescence; ≥ and ≤ were set here for values at or beyond the usual limits of such assays. To be noted: source organism: Sudan ebolavirus.
The target of experiment [26] is HLA-B*15:01. Description: IEDB peptide-MHC binding, purified MHC/direct/fluorescence; filed as Kd, often an IC50 or EC50 that approximates it; ≥ and ≤ were set here for values at or beyond the usual limits of such assays. To be noted: source organism: Zaire ebolavirus.
For experiment [27], the target named is HLA-A*68:02. The experiment is described as above. The conditions noted are these: source organism: Zaire ebolavirus.
The target of experiment [28] is HLA-B*48:01. The description is as above. To be noted: source organism: Zaire ebolavirus.
Experiment [29] deals with HLA-A*31:01. The experiment is described as above. The conditions noted are these: source organism: Zaire ebolavirus.
The target in experiment [30] is HLA-B*58:01. The description is as above. The conditions noted are these: source organism: Zaire ebolavirus.
The target of experiment [31] is HLA-A*02:11. The description is as above. The conditions noted are these: source organism: Zaire ebolavirus.
The target in experiment [32] is HLA-A*02:12. The description is as above. To be noted: source organism: Zaire ebolavirus.
In experiment [33] the target is HLA-B*57:01. The description is as above. The conditions noted are these: source organism: Zaire ebolavirus.
Experiment [34] has as its target HLA-A*69:01. The description is as above. The conditions noted are these: source organism: Zaire ebolavirus.
For experiment [35], the target named is HLA-B*27:05. The experiment is described as above. To be noted: source organism: Zaire ebolavirus.
Experiment [36] deals with HLA-A*01:01. The description is as above. To be noted: source organism: Zaire ebolavirus.
The target in experiment [37] is HLA-A*29:02. Described as above. To be noted: source organism: Zaire ebolavirus.
The target in experiment [38] is HLA-A*24:03. Described as above. To be noted: source organism: Zaire ebolavirus.
Experiment [39] addresses HLA-B*46:01. The experiment is described as above. The conditions noted are these: source organism: Zaire ebolavirus.
Experiment [40] concerns the target HLA-A*02:01. Description: IEDB peptide-MHC binding, purified MHC/competitive/fluorescence; filed as Kd, often an IC50 or EC50 that approximates it; ≥ and ≤ were set here for values at or beyond the usual limits of such assays. The conditions noted are these: source organism: Zaire ebolavirus.
Where [41] appears, read: source organism: Vaccinia virus WR.
The mark [42] stands for this setting: source organism: Mycobacterium tuberculosis variant bovis BCG str. Pasteur 1173P2.
Setting [43] is: source organism: Vaccinia virus Copenhagen.
[44] abbreviates: source organism: Camelpox virus CMS.
The mark [45] stands for this setting: source organism: Vibrio vulnificus.
Where [46] appears, read: source organism: Vaccinia virus.
The mark [47] stands for this setting: source organism: Brucella abortus.
The mark [48] stands for this setting: source organism: Zaire ebolavirus.

Consider HLYNILNNI, for which the Kd (in general, the equilibrium constant for the complex coming apart) was determined as 1480 nM in [1] (setting [41]); 1400 nM in experiment [2] (setting [41]); 72.6 nM in experiment [3] (setting [41]); 1970 nM in [4] (setting [41]); 1450 nM in experiment [5] (setting [41]).
In the case of HPVTATISF, the values for the Kd in experiment [6] (setting [42]), in experiment [7] (setting [42]) and in experiment [8] (setting [42]) were at least 5 µM, at least 5 µM and 616 nM, respectively.
For KTLKYSNKI, the Kd in experiment [1] (setting [41]) turned out to be 123 nM; in experiment [2] (setting [41]) it was 448 nM; in experiment [3] (setting [41]), 1.9 nM; in experiment [4] (setting [41]), 1180 nM; in experiment [5] (setting [41]), 37.5 nM.
In the case of LIPFLILFI, the Kd in [1] (setting [43]) is 471 nM; in experiment [2] (setting [43]), 195 nM; in experiment [3] (setting [43]), 12100 nM; in experiment [4] (setting [43]), 49.7 nM; in [5] (setting [43]) it was 97 nM.
LMYPTTLLK: the Kd in experiment [9] (setting [44]) is 2.2 nM; in experiment [10] (setting [44]), 4.5 nM; in [6] (setting [41]) it was at least 5 µM; in [7] (setting [41]), at least 5 µM; in [8] (setting [41]), at least 5000 nM.
For the sequence LPDLPTTTI, in experiment [11] (source organism: Staphylococcus aureus), the Kd was determined as 0.922 µM.
For NAFGWENAY, the figures for the Kd in experiment [12] (setting [45]), in experiment [11] (setting [45]) and in experiment [13] (source organism: Vibrio vulnificus YJ016) were 350 nM, at least 20 µM and 1320 nM, respectively.
As to QTIVFIWFI, the Kd in [1] (setting [46]) came to 253 nM; in experiment [2] (setting [46]), 1030 nM; in experiment [3] (setting [46]), 1760 nM; in [4] (setting [46]) it was 16900 nM; in experiment [5] (setting [46]), 6240 nM.
Consider RGRKRFHTL, for which the Kd was 9 nM in experiment [14] (source organism: Vibrio vulnificus CMCP6) and 6.76 µM in experiment [15].
With RPNPDFNTF, the Kd was 12.6 nM in experiment [12] (setting [47]), at least 20 µM in experiment [11] (setting [47]) and 3000 nM in [13] (source organism: Brucella melitensis bv. 1 str. 16M).
Regarding SLGDPLHQA, the Kd in experiment [16] (source organism: Homo sapiens) was at least 20 µM; in experiment [13] (source organism: Homo sapiens), at least 20000 nM; in experiment [17] (source organism: Homo sapiens), at least 20 µM; in experiment [18] (source organism: Homo sapiens), at least 20 µM; in experiment [19] it was at least 20 µM; in [20], at least 20 µM. The Kd in experiment [21], in experiment [22], in [23] (source organism: Homo sapiens) and in [24] was at least 20 µM in each case.
For SPGIRPRFL, the dissociation constant (Kd) in experiment [1] (setting [43]) was found to be 1920 nM; in [2] (setting [43]), 10300 nM; in [3] (setting [43]) it was 2810 nM; in [4] (setting [43]), 55.8 nM; in [5] (setting [43]), 8430 nM.
For YDRLASTVI, the IC50 (in general, the concentration needed to halve the response being measured) in experiment [25] turned out to be 2490 nM. Moreover, the Kd in experiment [12] (setting [48]) is at least 20000 nM; in experiment [26], at least 20 µM; in [27], at least 20 µM; in [28] it was at least 20 µM; in experiment [29], at least 20 µM; in [30], at least 20 µM. For the same sequence, the Kd is at least 20 µM in experiment [31]; at least 20 µM in experiment [32]; at least 20 µM in experiment [33]; at least 20 µM in experiment [34]; at least 20000 nM in experiment [9] (setting [48]); at least 20 µM in [35]. For the same sequence, the Kd in experiment [14] (setting [48]) is at least 20000 nM; in experiment [36], at least 20 µM; in [37], at least 20 µM; in experiment [38], at least 20 µM; in experiment [10] (setting [48]), at least 20000 nM; in experiment [39] it was at least 20 µM. In addition, the Kd in [16] (setting [48]), in experiment [17] (setting [48]), in [18] (setting [48]), in experiment [40] and in experiment [23] (setting [48]) was at least 20 µM each time.

Source of the values: the Immune Epitope Database (IEDB).
